From patent US12630600B2 (MEDIMMUNE LIMITED, priority 2022, dated 2026)
Starred links: 1 amine or outer side, 2 acyl side, 3 side chain; linkers in the order of their positions; H or OH if unused. Non-standard residues stand in square brackets, D forms with d. Groups on a side chain read outwards from the residue. No end group written: not given here. *: point of attachment. C20 diacid = O=C(O)CCCCCCCCCCCCCCCCCCC(=O)*; C18 diacid = O=C(O)CCCCCCCCCCCCCCCCC(=O)*; γGlu = O=C(O)[C@H](CCC(=O)[*:2])N[*:1]; αMeF = C[C@](N)(Cc1ccccc1)C(=O)O; AEEA = NCCOCCOCC(=O)O; Aib = CC(C)(N)C(=O)O

B1: Peptide 225 (peptide)
peptide: H[Aib]HGS[αMeF]TSDVSK[αMeF]LDSRAAK([AEEA-AEEA-γGlu-C18 diacid])D[αMeF]VQ[Aib]IANT-NH2
modifications: N-terminus assumed
SMILES: CC[C@H](C)[C@H](NC(=O)C(C)(C)NC(=O)[C@H](CCC(N)=O)NC(=O)[C@@H](NC(=O)[C@](C)(Cc1ccccc1)NC(=O)[C@H](CC(=O)O)NC(=O)[C@H](CCCCNC(=O)COCCOCCNC(=O)COCCOCCNC(=O)CC[C@H](NC(=O)CCCCCCCCCCCCCCCCC(=O)O)C(=O)O)NC(=O)[C@H](C)NC(=O)[C@H](C)NC(=O)[C@H](CCCNC(=N)N)NC(=O)[C@H](CO)NC(=O)[C@H](CC(=O)O)NC(=O)[C@H](CC(C)C)NC(=O)[C@](C)(Cc1ccccc1)NC(=O)[C@H](CCCCN)NC(=O)[C@H](CO)NC(=O)[C@@H](NC(=O)[C@H](CC(=O)O)NC(=O)[C@H](CO)NC(=O)[C@@H](NC(=O)[C@](C)(Cc1ccccc1)NC(=O)[C@H](CO)NC(=O)CNC(=O)[C@H](Cc1c[nH]cn1)NC(=O)C(C)(C)NC(=O)[C@@H](N)Cc1c[nH]cn1)[C@@H](C)O)C(C)C)C(C)C)C(=O)N[C@@H](C)C(=O)N[C@@H](CC(N)=O)C(=O)N[C@H](C(N)=O)[C@@H](C)O
B2: Peptide 221 (peptide)
peptide: H[Aib]HGS[αMeF]TSDVSK[αMeF]LDSR[Aib]AK([AEEA-AEEA-γGlu-γGlu-C20 diacid])DFVQ[Aib]IANT-NH2
modifications: N-terminus assumed
SMILES: CC[C@H](C)[C@H](NC(=O)C(C)(C)NC(=O)[C@H](CCC(N)=O)NC(=O)[C@@H](NC(=O)[C@H](Cc1ccccc1)NC(=O)[C@H](CC(=O)O)NC(=O)[C@H](CCCCNC(=O)COCCOCCNC(=O)COCCOCCNC(=O)CC[C@H](NC(=O)CC[C@H](NC(=O)CCCCCCCCCCCCCCCCCCC(=O)O)C(=O)O)C(=O)O)NC(=O)[C@H](C)NC(=O)C(C)(C)NC(=O)[C@H](CCCNC(=N)N)NC(=O)[C@H](CO)NC(=O)[C@H](CC(=O)O)NC(=O)[C@H](CC(C)C)NC(=O)[C@](C)(Cc1ccccc1)NC(=O)[C@H](CCCCN)NC(=O)[C@H](CO)NC(=O)[C@@H](NC(=O)[C@H](CC(=O)O)NC(=O)[C@H](CO)NC(=O)[C@@H](NC(=O)[C@](C)(Cc1ccccc1)NC(=O)[C@H](CO)NC(=O)CNC(=O)[C@H](Cc1c[nH]cn1)NC(=O)C(C)(C)NC(=O)[C@@H](N)Cc1c[nH]cn1)[C@@H](C)O)C(C)C)C(C)C)C(=O)N[C@@H](C)C(=O)N[C@@H](CC(N)=O)C(=O)N[C@H](C(N)=O)[C@@H](C)O
B3: Peptide 244 (peptide)
peptide: H[Aib]HGS[αMeF]TSDVSK[αMeF]LDSRAAK([AEEA-AEEA-γGlu-γGlu-C20 diacid])D[αMeF]VQSIANT-NH2
modifications: N-terminus assumed
SMILES: CC[C@H](C)[C@H](NC(=O)[C@H](CO)NC(=O)[C@H](CCC(N)=O)NC(=O)[C@@H](NC(=O)[C@](C)(Cc1ccccc1)NC(=O)[C@H](CC(=O)O)NC(=O)[C@H](CCCCNC(=O)COCCOCCNC(=O)COCCOCCNC(=O)CC[C@H](NC(=O)CC[C@H](NC(=O)CCCCCCCCCCCCCCCCCCC(=O)O)C(=O)O)C(=O)O)NC(=O)[C@H](C)NC(=O)[C@H](C)NC(=O)[C@H](CCCNC(=N)N)NC(=O)[C@H](CO)NC(=O)[C@H](CC(=O)O)NC(=O)[C@H](CC(C)C)NC(=O)[C@](C)(Cc1ccccc1)NC(=O)[C@H](CCCCN)NC(=O)[C@H](CO)NC(=O)[C@@H](NC(=O)[C@H](CC(=O)O)NC(=O)[C@H](CO)NC(=O)[C@@H](NC(=O)[C@](C)(Cc1ccccc1)NC(=O)[C@H](CO)NC(=O)CNC(=O)[C@H](Cc1c[nH]cn1)NC(=O)C(C)(C)NC(=O)[C@@H](N)Cc1c[nH]cn1)[C@@H](C)O)C(C)C)C(C)C)C(=O)N[C@@H](C)C(=O)N[C@@H](CC(N)=O)C(=O)N[C@H](C(N)=O)[C@@H](C)O
B4: Peptide 234 (peptide)
peptide: H[Aib]HGS[αMeF]TSDVSK[αMeF]LDSRAAK([AEEA-AEEA-γGlu-γGlu-C20 diacid])D[αMeF]VE[Aib]IANT-NH2
modifications: N-terminus assumed
SMILES: CC[C@H](C)[C@H](NC(=O)C(C)(C)NC(=O)[C@H](CCC(=O)O)NC(=O)[C@@H](NC(=O)[C@](C)(Cc1ccccc1)NC(=O)[C@H](CC(=O)O)NC(=O)[C@H](CCCCNC(=O)COCCOCCNC(=O)COCCOCCNC(=O)CC[C@H](NC(=O)CC[C@H](NC(=O)CCCCCCCCCCCCCCCCCCC(=O)O)C(=O)O)C(=O)O)NC(=O)[C@H](C)NC(=O)[C@H](C)NC(=O)[C@H](CCCNC(=N)N)NC(=O)[C@H](CO)NC(=O)[C@H](CC(=O)O)NC(=O)[C@H](CC(C)C)NC(=O)[C@](C)(Cc1ccccc1)NC(=O)[C@H](CCCCN)NC(=O)[C@H](CO)NC(=O)[C@@H](NC(=O)[C@H](CC(=O)O)NC(=O)[C@H](CO)NC(=O)[C@@H](NC(=O)[C@](C)(Cc1ccccc1)NC(=O)[C@H](CO)NC(=O)CNC(=O)[C@H](Cc1c[nH]cn1)NC(=O)C(C)(C)NC(=O)[C@@H](N)Cc1c[nH]cn1)[C@@H](C)O)C(C)C)C(C)C)C(=O)N[C@@H](C)C(=O)N[C@@H](CC(N)=O)C(=O)N[C@H](C(N)=O)[C@@H](C)O

These binders were tested against human GLP-1 receptor (human, UniProt P43220) (assay: cell-based or functional assay).

In order of falling “hGLP-1R EC50 (pM)” value:
1. H[Aib]HGS[αMeF]TSDVSK[αMeF]LDSRAAKD[αMeF]IA[Aib]IANT-NH2 (not fully specified (residue 20)) [Peptide 228]  200 pM
2. H[Aib]HGS[αMeF]TSDVSK[αMeF]LDSRAAKD[αMeF]VQ[Aib]IANT-NH2 (not fully specified (residue 20)) [Peptide 230]  170 pM
3. H[Aib]HGS[αMeF]TSDVSK[αMeF]LDSRAAKDFVQ[Aib]IANT-NH2 (not fully specified (residue 20)) [Peptide 222]  151 pM
4. B3  143 pM
5. B2  122 pM
6. H[Aib]HGS[αMeF]TSDVSK[αMeF]LDSRAAKD[αMeF]VQ[Aib]IANT-NH2 (not fully specified (residue 20)) [Peptide 232]  110 pM
7. H[Aib]HGS[αMeF]TSDVSK[αMeF]LDSRAAK([AEEA-AEEA-γGlu-C18 diacid])D[αMeF]VE[Aib]IANT-NH2 [Peptide 227]  70.5 pM
8. B4  68 pM
9. B1  34.9 pM

Each binder was assayed against human glucagon receptor (human, UniProt P47871) (assay: cell-based or functional assay).

In order of rising “hGluc-R EC50 (pM)” value:
1. H[Aib]HGS[αMeF]TSDVSK[αMeF]LDSRAAK([AEEA-AEEA-γGlu-C18 diacid])D[αMeF]VE[Aib]IANT-NH2 [Peptide 227]  27.2 pM
2. H[Aib]HGS[αMeF]TSDVSK[αMeF]LDSRAAKD[αMeF]VQ[Aib]IANT-NH2 (not fully specified (residue 20)) [Peptide 230]  37.1 pM
3. B2  123 pM
4. B1  145 pM
5. H[Aib]HGS[αMeF]TSDVSK[αMeF]LDSRAAKD[αMeF]IA[Aib]IANT-NH2 (not fully specified (residue 20)) [Peptide 228]  177 pM
6. H[Aib]HGS[αMeF]TSDVSK[αMeF]LDSRAAKDFVQ[Aib]IANT-NH2 (not fully specified (residue 20)) [Peptide 222]  244 pM
7. B3  420 pM
8. H[Aib]HGS[αMeF]TSDVSK[αMeF]LDSRAAKD[αMeF]VQ[Aib]IANT-NH2 (not fully specified (residue 20)) [Peptide 232]  1020 pM
9. B4  1290 pM
